Earlier results on two substances are cited in publication PMC3460238.

Usually Kd stands for the equilibrium constant for the complex coming apart.

Series [1] addresses C3b (Homo sapiens) (UniProt P01024).
For series [2] the target is unchanged. This is another data set of the same source.

Like-named read-outs stand apart in the source and are kept apart here.

Sequence of C3b (Homo sapiens) (P01024 23-667, chain 1 of 2): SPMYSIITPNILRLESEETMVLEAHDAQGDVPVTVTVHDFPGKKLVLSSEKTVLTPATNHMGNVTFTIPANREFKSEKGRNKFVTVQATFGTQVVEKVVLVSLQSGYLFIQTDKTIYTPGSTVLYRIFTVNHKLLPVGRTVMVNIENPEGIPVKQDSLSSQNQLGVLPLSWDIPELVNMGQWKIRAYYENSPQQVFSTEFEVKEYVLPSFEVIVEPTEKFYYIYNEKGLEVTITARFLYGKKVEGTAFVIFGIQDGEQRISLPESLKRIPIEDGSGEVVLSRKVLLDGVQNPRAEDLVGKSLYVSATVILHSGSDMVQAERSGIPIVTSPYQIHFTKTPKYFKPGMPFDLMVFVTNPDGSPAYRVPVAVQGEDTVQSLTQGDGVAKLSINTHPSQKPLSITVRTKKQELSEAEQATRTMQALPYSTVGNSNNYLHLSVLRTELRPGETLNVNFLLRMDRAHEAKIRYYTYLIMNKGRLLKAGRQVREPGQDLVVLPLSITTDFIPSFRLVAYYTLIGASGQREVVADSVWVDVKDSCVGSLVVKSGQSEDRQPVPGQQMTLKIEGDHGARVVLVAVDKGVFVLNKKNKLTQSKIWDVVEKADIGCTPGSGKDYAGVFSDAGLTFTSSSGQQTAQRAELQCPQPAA
Sequence of C3b (Homo sapiens) (P01024 749-1663, chain 2 of 2): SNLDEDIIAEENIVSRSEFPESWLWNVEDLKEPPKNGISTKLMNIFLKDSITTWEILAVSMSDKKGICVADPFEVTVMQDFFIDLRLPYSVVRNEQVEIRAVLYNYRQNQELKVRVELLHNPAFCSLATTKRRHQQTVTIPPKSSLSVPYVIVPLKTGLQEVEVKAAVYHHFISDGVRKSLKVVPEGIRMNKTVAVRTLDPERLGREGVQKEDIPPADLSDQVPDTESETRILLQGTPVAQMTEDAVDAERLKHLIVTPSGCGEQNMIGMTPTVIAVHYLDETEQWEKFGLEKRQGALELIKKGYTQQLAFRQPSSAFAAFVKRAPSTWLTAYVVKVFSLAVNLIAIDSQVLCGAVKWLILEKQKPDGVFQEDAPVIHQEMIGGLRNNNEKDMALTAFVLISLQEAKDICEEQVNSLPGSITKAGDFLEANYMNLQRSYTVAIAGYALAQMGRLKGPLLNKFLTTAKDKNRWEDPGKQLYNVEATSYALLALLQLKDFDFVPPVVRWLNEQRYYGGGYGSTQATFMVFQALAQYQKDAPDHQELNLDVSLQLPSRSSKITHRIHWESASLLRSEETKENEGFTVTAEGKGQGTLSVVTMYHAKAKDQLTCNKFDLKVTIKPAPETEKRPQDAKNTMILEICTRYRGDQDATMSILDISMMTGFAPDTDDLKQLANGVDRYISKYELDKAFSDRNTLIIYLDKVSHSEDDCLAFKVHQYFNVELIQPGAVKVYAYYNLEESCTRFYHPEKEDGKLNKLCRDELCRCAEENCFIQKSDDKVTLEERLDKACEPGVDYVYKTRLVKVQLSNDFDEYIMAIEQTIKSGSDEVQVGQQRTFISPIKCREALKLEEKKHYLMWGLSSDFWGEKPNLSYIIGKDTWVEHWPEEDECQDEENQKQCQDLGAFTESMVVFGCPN
Sequence of Factor H (62V) (P08603 19-1231): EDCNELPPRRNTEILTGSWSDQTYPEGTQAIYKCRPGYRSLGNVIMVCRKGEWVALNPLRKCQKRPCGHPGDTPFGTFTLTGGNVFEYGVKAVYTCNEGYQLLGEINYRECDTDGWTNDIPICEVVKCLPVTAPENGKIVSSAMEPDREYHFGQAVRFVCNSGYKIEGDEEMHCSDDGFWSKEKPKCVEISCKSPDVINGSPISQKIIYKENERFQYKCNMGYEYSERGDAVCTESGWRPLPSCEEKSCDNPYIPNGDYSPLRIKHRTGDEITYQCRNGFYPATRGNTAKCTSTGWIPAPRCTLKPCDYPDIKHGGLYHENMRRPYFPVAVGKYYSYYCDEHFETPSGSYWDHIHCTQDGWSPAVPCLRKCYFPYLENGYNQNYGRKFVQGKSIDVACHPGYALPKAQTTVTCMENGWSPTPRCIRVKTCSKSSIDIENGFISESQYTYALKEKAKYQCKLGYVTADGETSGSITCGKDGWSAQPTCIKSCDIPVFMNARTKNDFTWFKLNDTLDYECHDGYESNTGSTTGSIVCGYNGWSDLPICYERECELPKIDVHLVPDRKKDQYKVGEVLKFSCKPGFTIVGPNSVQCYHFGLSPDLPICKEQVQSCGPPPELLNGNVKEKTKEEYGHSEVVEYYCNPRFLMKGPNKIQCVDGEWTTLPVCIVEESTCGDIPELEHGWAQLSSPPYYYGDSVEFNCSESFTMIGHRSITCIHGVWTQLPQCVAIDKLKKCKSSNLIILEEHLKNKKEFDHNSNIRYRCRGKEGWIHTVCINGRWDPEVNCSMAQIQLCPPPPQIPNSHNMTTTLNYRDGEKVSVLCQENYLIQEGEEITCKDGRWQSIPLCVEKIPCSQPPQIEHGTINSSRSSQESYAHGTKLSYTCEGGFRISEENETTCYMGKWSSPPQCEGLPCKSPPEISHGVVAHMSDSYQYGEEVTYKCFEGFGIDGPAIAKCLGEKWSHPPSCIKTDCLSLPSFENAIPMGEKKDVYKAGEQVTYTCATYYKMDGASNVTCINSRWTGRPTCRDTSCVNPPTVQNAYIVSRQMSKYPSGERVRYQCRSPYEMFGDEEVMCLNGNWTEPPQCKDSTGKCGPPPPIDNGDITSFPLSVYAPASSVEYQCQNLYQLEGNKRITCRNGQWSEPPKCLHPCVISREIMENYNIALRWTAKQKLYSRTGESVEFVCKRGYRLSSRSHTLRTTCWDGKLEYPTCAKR

Factor H (62V) (from UniProt P08603): the Kd in the series with C3b (Homo sapiens) [1] is 1.3 µM.
Take Factor H (62I) (from UniProt P08603): in the series with C3b (Homo sapiens) [2], the Kd was 1 µM.
